Experimental data: PMC5932101 (EJNMMI Radiopharmacy and Chemistry, 2018)

Key:
in vivo [1] = experiment: in vivo; parameters: species or system mice; details: female, athymic Balb/c nude, mouse, iv, total radioactivity
Description: (§1) All animal experiments complied with the current laws of the Federal Republic of Germany and were conducted according to German Animal welfare guidelines. Normal female athymic Balb/c nude mice (17–20 g, 4–6 weeks old) were obtained from Janvier SAS (St. Berthevin Cedex, France). Mice were provided with food and water ad libitum. U-87 MG tumors were inoculated on the right shoulder by sub-cutaneous injection of 5×10^6 cells in a 100 μL cell suspension of a 1:1 v/v mixture of media with reconstituted basement membrane (GFR BD Matrigel™, Corning BV, Amsterdam, Holland).
For each compound, a total of five animals were injected with [^68Ga]3 (7–11 MBq) in 100 μL sterile filtered phosphate buffered saline via a tail vein. At 1 h p.i., animals were sacrificed by isoflurane anesthesia. Organs of interest were dissected, weighed and assayed for radioactivity in a gamma counter. The percent injected activity per gram (%IA g^− 1) for each tissue was calculated by comparison of the tissue counts to a standard sample prepared from the injectate.

in vivo [2] = experiment: in vivo; parameters: species or system mice; details: female, athymic Balb/c nude, mouse, iv, total radioactivity; remark: listed apart in the source
Description: as §1
For PET imaging studies, mice (n = 3) were injected with 100 μL sterile filtered phosphate buffered saline formulations pH 7.4 of [^68Ga]3 (7–11 MBq) by intravenous tail-vein injection and anesthetized with isoflurane (2–4% in air) 5–10 min prior image acquisition. PET imaging was performed on a Focus 120 microPET scanner at 1 h after administration. Data were acquired 1 h post administration in list mode. Reconstruction was performed using unweighted OSEM2D. Image analysis was performed using AMIDE. Image counts per second per voxel (cps/voxel) were calibrated to activity concentrations (Bq mL^− 1) by measuring a 3.5 cm cylinder phantom filled with a known concentration of radioactivity.

[3] = cited from earlier work
Text: The radiolabelled conjugate [^68Ga]3 is highly hydrophilic with a log Doct/PBS value of − 3.89 ± 0.02.

[4] = system: mice bearing αvß3-positive U-87 MG tumors; details: mouse, in vivo; cited from earlier work
Description: Table 1 Ex vivo biodistribution of [^68Ga]3 in mice bearing αvß3-positive U-87 MG tumors at 1 h p.i. along with blocking studies in comparison to [^68Ga]Ga-NODAGA-c(RGDfK) and [^68Ga]Ga-DOTA-c(RGDfK) (data taken from ref. Dumont et al. [2011]). Data are expressed as %IA g^− 1 and represent mean ± SD (n = 5) | column: [^68Ga]Ga-NODAGA-c(RGDfK) / 1 h; [^68Ga]Ga-DOTA-c(RGDfK) / 1 h || Biodistribution data for [^68Ga]3 are presented in Table 1. For comparison, equivalent data taken from the literature are also given for compounds [^68Ga]Ga-NODAGA-c(RGDfK) and [^68Ga]Ga-DOTA-c(RGDfK) (Dumont et al. [2011]). The primary difference between these three compounds is the change in chelator.

[5] = system: U-87 MG tumor bearing mice; details: mouse, in vivo; cited from earlier work
Description: In addition to the ex vivo biodistribution studies, the distribution profile of [^68Ga]3 was also assessed 1 h after administration by small-animal PET imaging. Corresponding transverse and coronal maximum intensity projections of [^68Ga]3 in αvß3 xenograft bearing mice along with blocking studies are given Fig. 2. The results of the biodistribution study were confirmed by PET imaging. The αvß3 positive U-87 MG tumors as well as the liver and the kidneys were clearly visible on the PET images. The tumor uptake of [^68Ga]3 was determined to 2.48 ± 0.14 %IA g^− 1. The differences in blood and ti ...

Compound	tissue uptake at 1 h (in vivo [1]; Accumulation in all other organs (other than tumor, kidney, liver))	tissue to tissue ratio at 1 h (in vivo [1]; Tumor-to-blood ratio)	tissue to tissue ratio at 1 h (in vivo [1]; Tumor-to-kidney ratio)	tissue to tissue ratio at 1 h (in vivo [1]; Tumor-to-liver ratio)	tissue to tissue ratio at 1 h (in vivo [1]; Tumor-to-muscle ratio)	tissue to tissue ratio at 1 h (in vivo [2])	log D [3]	Tumor-to-blood ratio [4]	Tumor-to-kidney ratio [4]	Tumor-to-liver ratio [4]	Tumor-to-muscle ratio [4]	Tumor-to-background ratio (PET) [5]
Cn1ccnc1CN1CCN(CC(=O)NCCCC[C@@H]2NC(=O)[C@@H](Cc3ccccc3)NC(=O)[C@H](CC(=O)O)NC(=O)CNC(=O)[C@H](CCCNC(=N)N)NC2=O)CCN(Cc2nccn2C)CC1 [[^68Ga]3, [^68Ga]Ga-NODIA-Me-c(RGDfK), metal not drawn]	< 1 %ID/g	3.91 ± 0.43	1.27 ± 0.04	2.08 ± 0.18	11.7 ± 0.29	6.76	–	–	–	–	–	–
[^68Ga]Ga-NODAGA-c(RGDfK) (head to tail)	–	–	–	–	–	–	− 3.27 ± 0.01	27.67 ± 7.01	2.64 ± 0.31	2.75 ± 0.31	12.80 ± 5.25	11.97
[^68Ga]Ga-DOTA-c(RGDfK) (head to tail)	–	–	–	–	–	–	− 2.86 ± 0.01	9.24 ± 1.12	1.57 ± 0.14	2.25 ± 0.37	12.37 ± 1.81	3.28
